Paper PMC11808092

Assays:
human dUTPase (human) [1] = target: human dUTPase (human)
human dUTPase (human) [2] = experiment: steady state enzyme inhibition assay; apparent; 50 nM hDUT preincubated 5 min with varying Stl variant, 30 µM dUTP, 25 °C, 1 mM HEPES, 150 mM KCl, 5 mM MgCl2, 40 µM phenol red, pH 7.5; quadratic binding equation
human dUTPase (human) [3] = experiment: crystal structure; Stl^NT and hDUT mixed in 1:1 monomer molar ratio, ca. 20 mg/ml; crystals at 20 °C from 1.5 M ammonium sulfate, 0.1 M sodium acetate pH 5; 3.2 Å
[4] = target: biotinylated Stl^NT (residues 1-159) with C-terminal Avi-tag (Staphylococcus aureus); experiment: BLI; biotinylated Stl construct on streptavidin SAX biosensors, hDUT in solution; Octet K2, 30 °C, 50 mM HEPES, 300 mM NaCl, 5 mM MgCl2, pH 7.5; at least five dilutions; 1:1 binding model; substrate-free

Stl protein, wild type, full-length (natural protein)
Residual activity of 50 nM hDUT at 300 nM Stl concentration (human dUTPase (human) [1]): 30%

Stl-E189A (natural protein)
Residual activity of 50 nM hDUT at 300 nM Stl concentration (human dUTPase (human) [1]): 77%

Stl-I181A, I184A (natural protein)
Residual activity of 50 nM hDUT at 300 nM Stl concentration (human dUTPase (human) [1]): 70%
Ki (human dUTPase (human) [2]): 2.3 nM

Stl-L192A, F196A (natural protein)
Residual activity of 50 nM hDUT at 300 nM Stl concentration (human dUTPase (human) [1]): 100%

Stl-S114D (natural protein)
Residual activity of 50 nM hDUT at 300 nM Stl concentration (human dUTPase (human) [1]): 100%

Stl-S114E (natural protein)
Residual activity of 50 nM hDUT at 300 nM Stl concentration (human dUTPase (human) [1]): 100%

Stl-V55S (natural protein)
Residual activity of 50 nM hDUT at 300 nM Stl concentration (human dUTPase (human) [1]): 75%

Stl-Y106K (natural protein)
Residual activity of 50 nM hDUT at 300 nM Stl concentration (human dUTPase (human) [1]): 83%

Stl-Y106R (natural protein)
Residual activity of 50 nM hDUT at 300 nM Stl concentration (human dUTPase (human) [1]): 89%

Stl-Y116R (natural protein)
Residual activity of 50 nM hDUT at 300 nM Stl concentration (human dUTPase (human) [1]): 69%

Stl-derived peptide 95-…-117
Residual activity of 50 nM hDUT at 300 nM Stl concentration (human dUTPase (human) [1]): 70%
Ki (human dUTPase (human) [2]): 13 nM

Stl^NT (amino terminal domain of Stl, residues 1-159) (domain or fragment)
Residual activity of 50 nM hDUT at 300 nM Stl concentration (human dUTPase (human) [1]): 50%
Ki (human dUTPase (human) [2]): 31 nM

human dUTPase (enzyme)
stoichiometry N (human dUTPase (human) [3]): 3
Kd [4]: 0.177 nM
koff [4]: 0.000106 s⁻¹
kon [4]: 600000 M⁻¹ s⁻¹
